The record followed here is patent publication US20070117770A1, “Human ribosomal DNA (rDNA) and ribosomal RNA (rRNA) nucleic acids and uses thereof” (Cylene Pharmaceuticals, Inc., priority 2005, published 2007).

Data set [1] addresses T1, nucleolin (Homo sapiens, UniProt P19338).
T1 construct: without the N-terminal acidic stretches domain
Kind of data set: Filter-binding assay of 32P-labeled quadruplexes and Nucleolin. Particulars: for Kd: 0.2 nM 32P-labeled quadruplex, read-out: Kd, apparent dissociation constant of nucleolin protein and the nucleic acid ligand. On the procedure: The assay also was conducted in a filter-binding format. […] The protein-quadruplex mixtures were incubated for 30 min at ambient temperature and filtered through mixed cellulose ester membrane filters (Millipore) with gentle suction. The filters were washed twice with […] of binding buffer, dried and OptiPhase ‘SuperMix’ scintillation cocktail (Perkin Elmer) was added to the wells. Radioactivity was assayed with MicroBeta scintillation counter (Perkin Elmer). Binding curves were constructed and apparent Kd's and Bmax's for the complexes were calculated using the GraphPad Prizm software program (GraphPad Software). In the following table, the nucleic acid ligand is designated in the first column using the nomenclature described herein; the second column provides the nucleotide sequence of the nucleic acid ligand; the third column is the conformation of the ligand as determined by circular dichroism (M is mixed, P is parallel, A is antiparallel, C is complex, SS is single-stranded and ND is not determined); the fourth column is the dissociation constant determined by the filter binding assay of nucleolin protein and the nucleic acid ligand; the fifth column is a Bmax constant determined by the filter binding assay, which is the percent of active nucleic acid ligand in each assay; and the sixth column presents the concentration of Compound A-1 required to dissociate half of the complexed nucleic acid ligand and nucleolin protein, as determined by the EMSA assay described above.

Data set [2] has as its target T1, nucleolin. The experiment in a line: EMSA, relative affinity of nucleic acid ligands for nucleolin. It counts as binding. Further details: key: +: weakest nucleolin affinity; ++++: strongest nucleolin affinity. On the procedure:
The following assays assessed effects of compounds on interactions between nucleolin and nucleic acid ligands capable of forming quadruplex (QP) and hairpin (HP) secondary structures. Nucleic acid ligands tested were a cMyc QP DNA having nucleotide sequence 5′-[…]-3′ (SEQ ID NO: 176) and a HP pre-rRNA region to which nucleolin binds, having the sequence 5′-[…]-3′ (SEQ ID NO: 177). In the assays, recombinant nucleolin (˜250 nM), which was fused to maltose binding protein and had the sequence under accession number NM_005381 without the N-terminal acidic stretches domain, was incubated with each of the two ^32P-labeled nucleic acid ligands (10 or 250 nM). Nucleolin and the nucleic acid ligand were incubated in the presence or absence of a test compound of Formula A-1, B-1, C-6 or C-7 in an incubation buffer (12.5 mM Tris, pH 7.6, 60 mM KCl, 1 mM MgCl2, 0.1 mM EDTA, 1 mM DTT, 5% glycerol, 0.1 mg/ml BSA) for 30 minutes at room temperature. Structures for A-1 and B-1 are shown above and structures for C-6 and C-7 are shown hereafter: [drawing 17] The resulting complexes were separated on a 6% DNA retardation gel using 0.5× TBE with 20 mM KCl as a running buffer (i.e., electrophoresis mobility shift assay (EMSA)).
The assay also was conducted using nucleic acid ligands derived from human ribosomal DNA. Sequences of these nucleic acids are shown in the preceding example. […]
Background: In EMSA bound probe runs differently from free probe, usually more slowly.

T1 sequence (P19338 284-710 limits assumed): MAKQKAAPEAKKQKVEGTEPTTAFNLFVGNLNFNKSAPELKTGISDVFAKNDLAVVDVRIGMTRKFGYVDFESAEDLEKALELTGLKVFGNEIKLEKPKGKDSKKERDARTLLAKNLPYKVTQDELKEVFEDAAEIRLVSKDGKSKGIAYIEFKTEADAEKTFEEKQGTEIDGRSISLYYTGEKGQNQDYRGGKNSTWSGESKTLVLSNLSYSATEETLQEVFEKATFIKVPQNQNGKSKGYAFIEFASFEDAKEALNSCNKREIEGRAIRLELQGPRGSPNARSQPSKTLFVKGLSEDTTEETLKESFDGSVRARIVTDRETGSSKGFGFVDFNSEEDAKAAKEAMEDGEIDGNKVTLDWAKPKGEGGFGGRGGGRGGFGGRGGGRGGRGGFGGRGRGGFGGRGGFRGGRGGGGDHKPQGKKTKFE

B1: CGGAGGGCGCGCGGGTCGGGGCGGCGGCGGCGGCGGCGGTGGCGGCGGCGGCGGGGGCGGCGGG (nucleic acid, listed as Homo sapiens)
chain: CGGAGGGCGCGCGGGTCGGGGCGGCGGCGGCGGCGGCGGTGGCGGCGGCGGCGGGGGCGGCGGG
modifications: listed as DNA, chemistry not given here
As for B1, in data set [1], the “Bmax, percent of active nucleic acid ligand” value is on record as 100% and the Kd stood at 0.3 nM. Moreover, in data set [2], the “Affinity for Nucleolin (relative)” value is on record as “++++”.

B2: AGGGCGGCGGGCGGGGAAGAGGGCACAGACGGGCGAGGGCCGGGGACCGCGAGGGCAAGGGCACCCGGG (nucleic acid, listed as Homo sapiens)
chain: AGGGCGGCGGGCGGGGAAGAGGGCACAGACGGGCGAGGGCCGGGGACCGCGAGGGCAAGGGCACCCGGG
modifications: DNA, backbone and methylation of C not given here
Regarding B2, in data set [1], the “Bmax, percent of active nucleic acid ligand” value is on record as 55% and the Kd was 0.7 nM.
